From article doi:10.1101/2024.07.16.603715 come the findings set out here.

This assay addresses PTPRD/S (signal of the anti-PTPR blot in BN-PAGE). Put plainly: native gel or EMSA.

What is called stoichiometry N is the number of molecules, sites or subunits per partner or assembly. Regarding tetraspanin T178B (natural protein), the stoichiometry N was 1.
